This is an account of results in the nanobody polyreactivity screen of Harvey et al. (2022).

The nature of this series: yeast display, Sf9 membrane polyspecificity reagent, FACS + sequencing; frameworks hold sequencing errors. In a few lines: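 Sorting gates, low and high (top ~1%), were placed on anti-HA fluorescence to track expression and on streptavidin fluorescence to track reagent binding. A clone's polyreactivity label is taken from the gate it came out of. The reagent was 10% biotinylated, detergent-solubilized Sf9 membrane, applied for 1 hour at 4 °C to galactose-induced yeast display cells.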
Turning to “QVQLVESGGGLVQAGGSLRLSCAASGSTFYPYAMGGYRQAPGKERELVAAISSGGSTYYADSVKGRFTISRDNAKNTVYLQMNSLKPADTAVYYCAADFYYAYYWGQGTQVTVSS”, the “polyreactivity (PSR sort gate)” value is listed as “low polyreactivity”.

Regarding “QVQLVESGGGLVQAGGSLRLSCAASGFTLSWYAMGWYRQAPGKERELVATISRGGITYYADSVKGRFTLSRDNANNTVYVQMNSLKPEDTAVYYCAADYRYGWYRYDYWGQGTQVTVSS”, the “polyreactivity (PSR sort gate)” value was “high polyreactivity”.

As to “QVQLVESGGGLVQAGGSLRLSCAASGFTFTRYAMGRYRQAPGKERELGATITKRGGSTYYADSVKGRFTISRDNAKNTVYLQLNSLKPEDTAVYFCAARNVRTYVTGVDYDYWGQGTQVTVSS”, the “polyreactivity (PSR sort gate)” value is on record as “high polyreactivity”.

Take “QVQLVESGGGLVQAGGSLRLSCAASGSIFPFNAMGWYRQAPGKERELVAAISRRGTGTYYADSVKGRFTISRDNAKNTVYLQMNSLKPEDTAVYYCNAVVRAGHYDYWGQGTQVTVSS”: the “polyreactivity (PSR sort gate)” value is reported as “high polyreactivity”.

For “QVQLVESGGGLVQAGGSLRLSCAASGSTFETYAMGWYRQAPGKERELVATISLSGGRTYYADSVKGRFTISRDNAKNTVYLQMNSLKPEDTAVYYCNADGYGNVGGGDSWGQGTQVTVSS”, the “polyreactivity (PSR sort gate)” value is given as “low polyreactivity”.

Regarding “QVQLVESGGGLVQAGRSLRLSCAASGSTLQDNAMGWYRQAPGKERELVAAITLNGGSTYYADSVKRRFTISRDHAKNTVYLPMNSLKPEDTAVYYCAAEYLYVGYWFDYWGQGTQVTVSS”, the “polyreactivity (PSR sort gate)” value is “high polyreactivity”.

In the case of “QVQLVESGGGLVQAGGSLRLSCAASGRIFEGYAMGWYRQAPGKERELVAAITGSGGGTYYADSVKGRFTISRDNAKNTVYLQMNSLKPEDTAVYYCATAYSAYQHPYGYWGKGTQVTVSS”, the “polyreactivity (PSR sort gate)” value is given as “low polyreactivity”.

In the case of “QVQLVESGGGLVQAGGSLRLSCAASGSTFYYAMGWYRQAPGKERELVASITFSTGSTYYADSVKGRFTISRDNAKNTVYLQMTSLKPEDTAVYYCATGVDTYSLTVEHDSWGQGTQVTVSS”, the “polyreactivity (PSR sort gate)” value is recorded as “low polyreactivity”.

As to “QVQLVESGGGLVQAGGSLRLSCAASGRIFPSYAMGWYRQAPGKERELVAAISSSGGRTYYADSVKGRFTISRDNAKNTVYLQMNSLKPEDTAVYYCAARWVQYGVRYDYWGQGTQVTVSS”, the “polyreactivity (PSR sort gate)” value is reported as “high polyreactivity”.

Take “QVQLVESGGGLVQAGGSLRLSCAASGRIYNGNAMGWYRQAPGKERELVAAITSDGSTYADSVKGRFTISRDNAKNTVYLHMNSLKPEATADYYCATDDPLAYGSFGPYQPYDYWGQGTQVTVSS”: the “polyreactivity (PSR sort gate)” value is “low polyreactivity”.

For the sequence “QVQLEESGAGLVQAGGSLRLSCAASGRIFTVYAMGWYRHAPGKEREFVAAIRSSGGRTYYADSVKGRFTISRDNEKNTVYLQMNSLNPEDTAVYYCAASVTGPSGADYYYWGQGTQVTVSS”, the “polyreactivity (PSR sort gate)” value is listed as “high polyreactivity”.

For the sequence “QVQLVESGGGLVQAGGSLRLSCAASGFIFAEYAMGWYRQAPGKEREFVASITYSGGRTYYADSVKGRFTISRDNAKNTVYLQMNSLKPEDTAVYYCATARYRYHYYSWGQGTQVTVSS”, the “polyreactivity (PSR sort gate)” value was “high polyreactivity”.

In the case of “QVQLVESGGGLVQAGGSLRLSCAASGSTFGSYAMGWYRQAPGKERELVAAISYSGGSTYYADSVKGRFTISRDNAKNTVYLLMNSLKPEDTAVYYCATVRKYRAMDYWGQGTQVTVSS”, the “polyreactivity (PSR sort gate)” value is on record as “high polyreactivity”.

In the case of “QVQLVESGGGLVQAGGSLRLSCAASGLTFQRYAMGWYRQAHGKERELVAAISYRGSRTYYADSVKGRFTISRDNAKNTVYLQMNSMKPEDSAVYYCNKVRTGYGVTYLVGYWGQGTHVTVSS”, the “polyreactivity (PSR sort gate)” value is “high polyreactivity”.

As to “QVQLVESGGGLVQAGGSLRLSCAASGITLTVYTMGWYRQAPGKERKLVAAITYGGTSTYYADSVKGRFTISRDNAKNTVYLQMNSLKPEDTAVYYCNVAFGYSYRGRDYWGQGTQVTVSS”, the “polyreactivity (PSR sort gate)” value was “high polyreactivity”.

Regarding “QVQLVESGGGLVQAGGSLRLSCAASGITLVFNAMGWYRQAPGKERELVAAITSGGITNYADSVKGRFTISRDNAKNTVYLQMNSLKPEDTAVYYCATDYGYFHYPWCPLWGYEYWGQGTQVTVSS”, the “polyreactivity (PSR sort gate)” value is listed as “low polyreactivity”.

Turning to “QVQLVESGGGLVKAGGSLRLSCAASGFTFPQYAMGWYRQAPGKESELVAAISKRSGGTRYADSVKGRFTISRDNAKNTVYLQMNSLKPEDTAVYYCAAATPSGYYYWGQGTQVTVSS”, the “polyreactivity (PSR sort gate)” value is on record as “high polyreactivity”.

With “QVQLVESWGCLVQAGGSLRLSCAASRSTFLSYAMGWDRQAPGKERELVAAISWSGGRTYYADSVKGRFTISRDHAKNTVYLQMNSLKPDDSAVYYCNAGQGYRAPLYNLYDYWGQGTQVTVSS”, the “polyreactivity (PSR sort gate)” value is reported as “low polyreactivity”.

“QDQLVESGGGLVQAGGSLRLSCAASGFTFTRYAMGWYRQAPGKERELVAAITRRSGRTYYADSVKGRFTISRDNAKNTVYLQMNSLKPEDTAVYYCNAVRTTPSGSLPLAYDYWGQGTQVTVSS”: the “polyreactivity (PSR sort gate)” value is on record as “high polyreactivity”.

For “QVQLVESGGGLVQAGGSLRLSCAASGITFGPYAMGWYRQATGKERELVAAINWSGGSTYYADSVKGRFTISRDNAKTTVYLQMNSLKPEDTAVYYCAAEPYKRLYQFYFWGQGTQVTVSS”, the “polyreactivity (PSR sort gate)” value is listed as “high polyreactivity”.

Consider “QVQLVESGGGLVQAGGSLRLSCAASGSTFFPYAMGWYRQAPGKVRELVAAIRWSGGRTYYADSVKGRFTISRDNPKNTVFLQMNSLKPEDTAVYYCNGYSVYVRGEYWGQGTQVTVSS”, for which the “polyreactivity (PSR sort gate)” value is reported as “high polyreactivity”.

As to “QVQLVESGGGLVQAGGSLRLSCAASGNIFDTYVMGWYRPAPGTERELVAAISSAGSTNYADSVKGRFTISRDNAKNTVYLQMNSLKPEDTAVYYCNADYWYYGYDYWGQGTQVTVSS”, the “polyreactivity (PSR sort gate)” value is “low polyreactivity”.

In the case of “QVQLVESGGGLVQAGGSLRLSCDASGSTIPTYAMGWYRQAPGKERELVASISVTTGSTYYADSVKGRFTISRDNAKNTVYLNMKSLKPEDTAVYFCAKRTYSRKFRGSYNYWGQGTEVTVSS”, the “polyreactivity (PSR sort gate)” value was “high polyreactivity”.

Regarding “QVQLVESGGGLVQAGGSLRLSCAASGSTFSYNARGWYRQAPGKERELVAAITSGSSTNYADSVKGRFTISRDNAKNTVYLQMNSLKPEDTAVYYCAADGYQDKYYWLETWVGYWGQGTQVTVSS”, the “polyreactivity (PSR sort gate)” value is “low polyreactivity”.

As for “QVQLVESGGGLVQAGGSLRLSCAASGRTFHGYAMGWYRQAPGKERELVAAINASGGRTYYADSVKGRFTISRDNAKNTVYLQMNSLKPEDTAVYYCAVYSASFRYGLAYDYWGQGTQVTVSS”, the “polyreactivity (PSR sort gate)” value was “high polyreactivity”.

Turning to “QVHHVESGAGLVQAGGSLRLSSAASGRTFGSNTKGCYSQAPGKERELVAAITISGGSTYYADSVKGRFTISRDNAKNTVYLKMNSLKPEDTAVYYCATRLWGHGGGRTTSYMYNWRQGTQVTVSS”, the “polyreactivity (PSR sort gate)” value is given as “high polyreactivity”.

As to “QVQLVESGGGLVQAGGSLRLSCAASGFTFRWYTMGWYRQAPGKERELVASIDWSGGSTYYADSVKGRFTITRDNAKNTVYLQMNSLKAEDTAVYYCNAGSDIFWSASTYGYWGQGTQVTVSS”, the “polyreactivity (PSR sort gate)” value was “high polyreactivity”.

For the sequence “QVQLVESGGGLVQAGGSLRLSCAASGITFKFNAMGWYRQAPGKERELVAAISVRGGRTYYADSVKGRFTISRDNAKNTVYLQMNSLKPEDTAVYYCAATDWFYSYYLGYGYGYWGQGTQVTVSS”, the “polyreactivity (PSR sort gate)” value is “high polyreactivity”.

For “QVQLVESGGGLVQAGGSLRLSCAASGSTFNIYAMGWYRQAPGKERELVATISWTGGRTFYADSVKGRFTISRDNAKNTVYLQMNSLKPEDTAVYYCNKASTGGYDYWGQGTQVTVSS”, the “polyreactivity (PSR sort gate)” value is “high polyreactivity”.

Turning to “QVQLVESGGGLVQAGGSLRLSSAASGSILYVYAMGWYRQAPGKERELVAVITSGGSTNYADSVKGRFTISRDNAKNTVYLQMNSLKPEDTAVYYCAADPYSVYGGDYWGQGTQVTVSS”, the “polyreactivity (PSR sort gate)” value is listed as “low polyreactivity”.

For the sequence “QVQLVESGGGLVQAGGSLRLSCAASGRIFPVNTMGWYRQAQGKVRELVAAITSGGGTYYADSVKGRFTISRDNAKNTVYLQMNSLKPEDTAVYYCNAPEGRKPYDSWGQGTQVTVSS”, the “polyreactivity (PSR sort gate)” value is on record as “low polyreactivity”.

“QVQLVESGGGLVQAGGSLRLSCAASGRTFFYYAMGWYRQAPGKERELFATITKRGGSTYYADSVKGRFTISRDNAKNTVYLQMNSLKPEDTAVYYCAATYYRQGRRYLGYDYWGQGTQVTVSS”: the “polyreactivity (PSR sort gate)” value is “high polyreactivity”.

With “QVQLVESGGGLVQAGGSLRLSCAASGSSFRYNAMGWYREAPGKEREMVAAITSSATSTYYADSVKGRFTISRDNAKNTVYLQMNSLKPEATAVYYCAAPPVYKWVSSRYDYWGQGTQVTVSS”, the “polyreactivity (PSR sort gate)” value is “low polyreactivity”.

For the sequence “QVQLVESGGGLVQAGGSLRLSCAASGRIFDHNAMGWYRQAPGKERELVAAIDSGTSTNYADSVKGRFTISRDNAKNTVYLQMNSLKPEDTAVYYCARLLGPVRDKYDYDYWGQGTQVTVSS”, the “polyreactivity (PSR sort gate)” value was “low polyreactivity”.

With “QVQLVESGGGLVQAGGSLRLSCAASGRILYYYAMGWYRQAPGKERELVATITRTTGSTYYADSVKGRFTISRDNAKNTVYLQMNSLKPEDTAVYYCAARWGRWIRDNYWGQGTQVSVSS”, the “polyreactivity (PSR sort gate)” value is listed as “high polyreactivity”.

With “QVQLVESGGGLVQAGGSLRLSCAASGSIFFAYAMGWYRQAPGKERELVAAIRSGVRTNYADSVKGRFTISRDNAKNTVYIQMNSLKPEDTAVYYCNTDLSKFGHRVSLSGYDYWGQGTQVNVSS”, the “polyreactivity (PSR sort gate)” value is recorded as “low polyreactivity”.

Regarding “QVQLVESGGGLVQAGGSLRLSCAASGSIFTVYAMGWYRQAPGKERELVAAITRNGGRTYYADSVKGRFTISRDNAKNTVYLQMNSLKPEDTAVYYCAAPGLYSRLDYWGQGTQVTVSS”, the “polyreactivity (PSR sort gate)” value is reported as “high polyreactivity”.

Turning to “QVQLVESGGGLVQAGGSLRLSCAASGRTFSKYAMGWYRQAPGKERELVAAITSGGGTYYADSVKGRFTISRDNAKNTVYLQMNSLKPEDTAVYYCAVSVTTVSTYDYWGQGTQVTVSS”, the “polyreactivity (PSR sort gate)” value was “low polyreactivity”.

In the case of “QVQLVESGGGLVQAGGSLRLSCAASGRTFAVYAMGWYRQAPGKERELDAAITYGGGRTYYADSVKGRFTISRDNAKNTVYLQMYSLKPEDTAVYYCAADYYGTDYDYWGQGTQVTVSS”, the “polyreactivity (PSR sort gate)” value is recorded as “low polyreactivity”.

Take “QVQIEESGGGLVQAGGSLRLSCAASGRIFSLNVMGWSRQAPRKERELVATIRGRGTSTYYADSVKGRFTISRDNAKNTVYLQMNSLKPEDTAVYYCAASGHGAYGYWGQGTQVTVSS”: the “polyreactivity (PSR sort gate)” value is recorded as “low polyreactivity”.

With “QVQLVESGGGLVQAGGSLRLSCAASGSTFTINVMGWYRQAPGKERELVAAINGGGRTNYADSVKGRFTISRDNAKNTVYLQMNSLKPEDTAVYYCNARYGNESQGWEDYWGQGTKVTVSS”, the “polyreactivity (PSR sort gate)” value was “low polyreactivity”.
